This assay concerns the target T1, recombinant human IFNγ (human, UniProt P01579 24-166).
T1 chain: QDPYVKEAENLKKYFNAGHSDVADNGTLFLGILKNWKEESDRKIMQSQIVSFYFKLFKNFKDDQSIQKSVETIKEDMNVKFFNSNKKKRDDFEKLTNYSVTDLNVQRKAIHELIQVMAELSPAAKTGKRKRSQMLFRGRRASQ
In words: SPR (Biacore). A general note: SPR reads the build-up and loss of mass on a sensor chip optically.

B1: NI-0501 (antibody, V domains shown)
VH: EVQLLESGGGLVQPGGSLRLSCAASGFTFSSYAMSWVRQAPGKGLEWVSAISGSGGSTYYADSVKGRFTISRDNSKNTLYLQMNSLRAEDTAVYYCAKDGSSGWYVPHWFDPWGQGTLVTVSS
VL: NFMLTQPHSVSESPGKTVTISCTRSSGSIASNYVQWYQQRPGSSPTTVIYEDNQRPSGVPDRFSGSIDSSSNSASLTISGLKTEDEADYYCQSYDGSNRWMFGGGTKLTVL
As for B1, the dissociation constant (Kd) (as a rule, the free concentration of one partner at which half of the binding sites on the other are occupied at equilibrium, for simple one-to-one binding) came out at 0.732 nM.

Source of the values: US20100158922A1 (published 2010).
